B1: wildtype TBK1 (TANK-binding kinase 1), mCitrine-Protein A fusion [not stated] / TRAF family member-associated NF-kB activator (TANK), NanoLuc-tagged [not stated] (parent complex)
chain 1: MQSTSNHLWLLSDILGQGATANVFRGRHKKTGDLFAIKVFNNISFLRPVDVQMREFEVLKKLNHKNIVKLFAIEEETTTRHKVLIMEFCPCGSLYTVLEEPSNAYGLPESEFLIVLRDVVGGMNHLRENGIVHRDIKPGNIMRVIGEDGQSVYKLTDFGAARELEDDEQFVSLYGTEEYLHPDMYERAVLRKDHQKKYGATVDLWSIGVTFYHAATGSLPFRPFEGPRRNKEVMYKIITGKPSGAISGVQKAENGPIDWSGDMPVSCSLSRGLQVLLTPVLANILEADQEKCWGFDQFFAETSDILHRMVIHVFSLQQMTAHKIYIHSYNTATIFHELVYKQTKIISSNQELIYEGRRLVLEPGRLAQHFPKTTEENPIFVVSREPLNTIGLIYEKISLPKVHPRYDLDGDASMAKAITGVVCYACRIASTLLLYQELMRKGIRWLIELIKDDYNETVHKKTEVVITLDFCIRNIEKTVKVYEKLMKINLEAAELGEISDIHTKLLRLSSSQGTIETSLQDIDSRLSPGGSLADAWAHQEGTHPKDRNVEKLQVLLNCMTEIYYQFKKDKAERRLAYNEEQIHKFDKQKLYYHATKAMTHFTDECVKKYEAFLNKSEEWIRKMLHLRKQLLSLTNQCFDIEEEVSKYQEYTNELQETLPQKMFTASSGIKHTMTPIYPSSNTLVEMTLGMKKLKEEMEGVVKELAENNHILERFGSLTMDGGLRNVDCL
chain 2: MDKNIGEQLNKAYEAFRQACMDRDSAVKELQQKTENYEQRIREQQEQLSLQQTIIDKLKSQLLLVNSTQDNNYGCVPLLEDSETRKNNLTLDQPQDKVISGIAREKLPKVRRQEVSSPRKETSARSLGSPLLHERGNIEKTFWDLKEEFHKICMLAKAQKDHLSKLNIPDTATETQCSVPIQCTDKTDKQEALFKPQAKDDINRGAPSITSVTPRGLCRDEEDTSFESLSKFNVKFPPMDNDSTFLHSTPERPGILSPATSEAVCQEKFNMEFRDNPGNFVKTEETLFEIQGIDPIASAIQNLKTTDKTKPSNLVNTCIRTTLDRAACLPPGDHNALYVNSFPLLDPSDAPFPSLDSPGKAIRGPQQPIWKPFPNQDSDSVVLSGTDSELHIPRVCEFCQAVFPPSITSRGDFLRHLNSHFNGET

Variants of: B1
Experiment: LuTHy-BRET; live HEK293 cells; parent: 1; read off a plot

| Variant | ratio to parent |
| --- | --- |
| chain 1 R47H | ~1 |
| chain 1 E696K | ~0.99 |

Variants of: B1
Experiment: LuTHy-BRET donor saturation assay; live HEK293 cells; read at Acceptor:Donor = 4 (highest point of the curve); parent: 0.068; read off a plot

| Variant | response |
| --- | --- |
| chain 1 E696K | ~0.062 |

Source: paper PMC10959724 (2024)
